Laboratory results taken from patent US20260193326A1 (published 2026).
Numbering of substitutions follows the chain as printed.

B1: A4-051 (VHH)
VHH: VQLQESGGGLVQPGGSLRLSCAASGSSFVINTMGWYRRAPGKQRELVAAVTRGGSTNYADSVKGRFTISRDNAKNTVYLQMNSLRPEDTAVYYCHVDEVRQSSWTTSNLWGQGTQVTVSS
B2: A4-086 (VHH)
VHH: B1 VHH with S27R, V29S, I30L, R38Q, S55N, S61F, V99L, Q101E
B3: A4-068 (VHH)
VHH: VQLQESGGGLVQTGGSLRLSCAASGRAFSLNTMGWYRQAPGKWRELVATVTRGGSTNYAGSVKGRFTISRDNAKNTVYLQMNNLRPEDTAVYYCHVDEVRESSWTTSNLWGQGTQVTVSS
B4: A4-084 (VHH)
VHH: VQLQESGGGLVQPGGSLKLSCAASGSRFSLNTMGWYRQAPRKQREFVAAVTRGGNTNYGDFVKGRFTISRDNAKNTVYLQMNSLRPEDTAVYYCHVDELRESSWTTSNLWGQGTQVTVSS
B5: A4-087 (VHH)
VHH: B4 VHH with K18R, R41G, F46L
B6: A4-071 (VHH)
VHH: B1 VHH with L10A, P13A, S27T, V29S, R38Q, A49T, A59G, S61F, S83T, V96L
B7: A4-097 (VHH)
VHH: VQLQESGGGLVQPGGSLRLSCIASGSIFSANTMGWYRQAPGKQRELVATITRGGNTNYGDSVKGRFTISRDNAKNTVYLQMNTLRPEDTAVYYCHVDEIRESSWTTSNLWGQGTQVTVSS
B8: A4-056 (VHH)
VHH: B1 VHH with S27A, V29S, R38Q, L46K
B9: A4-085 (VHH)
VHH: B4 VHH with K18R, R41G
B10: A4-082 (VHH)
VHH: B4 VHH with K18R, R41G, F46L, A49T, N55S, N57K, G59A, S103G
B11: A4-100 (VHH)
VHH: B1 VHH with S27I, R38Q, A49S, V50L, A73D, V77I, Q101E, S103T, L109I
B12: A4-080 (VHH)
VHH: B4 VHH with K18R, R41G, F46L, A49T, N55S, G59A, S103G
B13: A4-054 (VHH)
VHH: B1 VHH with S27A, V29S, R38Q
B14: A4-095 (VHH)
VHH: B7 VHH with I22A, I27S, N75D, T83S, V96I, S103T
B15: A4-079 (VHH)
VHH: B1 VHH with S26T, S27R, V29S, R38Q, A49N, R52P, G53A, V99L, Q101D
B16: A4-081 (VHH)
VHH: B4 VHH with K18R, R41G, F46L, A49T, N55S, G59A, F61S, S103G
B17: A4-075 (VHH)
VHH: B1 VHH with P13S, S27M, V29S, I30L, R38Q, A49T, V50I, S55G, V99L
B18: A4-078 (VHH)
VHH: B1 VHH with A22L, S26T, S27M, V29S, I30L, R38Q, A49T, S61F, Q101D
B19: A4-096 (VHH)
VHH: B7 VHH with I27S, T83S, V96I, S103T
B20: A4-067 (VHH)
VHH: B3 VHH with A73T
B21: A4-098 (VHH)
VHH: B7 VHH with A30I
B22: A4-094 (VHH)
VHH: B1 VHH with A22V, S27I, R38Q, A49T, G53D, S55G, V96I, V99I, Q101E
B23: A4-064 (VHH)
VHH: B3 VHH with T13S, A27N, M33V, W43Q, R52S, S55G, N83S, S103T
B24: A4-091 (VHH)
VHH: VQLQESGGGLVQPGGSLRLSCAASGSRFSINTMGWYRQRAGKQRELVATVTRDGSTTYANSVKGRFTISRDNAKNTVYLQMNSLRPEDTAVYYCHVDELRQSTWTTSNLWGQGTQVTVSS

These binders were tested against T1, AAV8 (adeno-associated virus 8) (assay: SPR, AAV amine-coupled to CM5 chip;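 further: nanobodies flowed as analyte at seven concentrations spanning 1–100 nM over immobilized AAV (500–800 RU), kinetic constants derived by fitting the binding curves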).
T1 construct: also called adeno-associated virus serotype 8
Protocol: (§1) AAV was amine-coupled to a CM5 sensor chip at a density of 500-800 response units (RU). Nanobodies were injected at seven concentrations (1-100 nM) with a flow rate of 45 μL/min, and chip regeneration was performed using glycine-HCl (pH 1.5). Binding curves at different nanobody concentrations were used to calculate kinetic parameters (Kₐ, Kd, KD) (Table 2 and FIG. 2).

Binder	Kd	koff	kon
B1	791 nM	0.00466 s⁻¹	5890 M⁻¹ s⁻¹
B2	0.76 nM	6e-05 s⁻¹	78900 M⁻¹ s⁻¹
B3	182 nM	0.00436 s⁻¹	24000 M⁻¹ s⁻¹
B4	12.8 nM	0.00177 s⁻¹	138000 M⁻¹ s⁻¹
B5	1.05 nM	0.00012 s⁻¹	115000 M⁻¹ s⁻¹
B6	16.4 nM	0.00137 s⁻¹	83300 M⁻¹ s⁻¹
B7	12.4 nM	0.00192 s⁻¹	155000 M⁻¹ s⁻¹
B8	265 nM	0.00779 s⁻¹	29400 M⁻¹ s⁻¹
B9	108 nM	0.00041 s⁻¹	3790 M⁻¹ s⁻¹
B10	46.7 nM	0.00017 s⁻¹	3640 M⁻¹ s⁻¹
B11	36.2 nM	0.00356 s⁻¹	98300 M⁻¹ s⁻¹
B12	191 nM	0.00138 s⁻¹	7220 M⁻¹ s⁻¹
B13	368 nM	0.0018 s⁻¹	4890 M⁻¹ s⁻¹
B14	2.25 nM	0.00026 s⁻¹	116000 M⁻¹ s⁻¹
B15	1620 nM	0.0019 s⁻¹	1180 M⁻¹ s⁻¹
B16	6.05 nM	0.00105 s⁻¹	174000 M⁻¹ s⁻¹
B17	9.57 nM	0.00067 s⁻¹	70000 M⁻¹ s⁻¹
B18	61.6 nM	0.006 s⁻¹	97500 M⁻¹ s⁻¹
B19	15.4 nM	0.00169 s⁻¹	110000 M⁻¹ s⁻¹
B20	128 nM	0.00044 s⁻¹	3440 M⁻¹ s⁻¹
B21	23.3 nM	0.00018 s⁻¹	7740 M⁻¹ s⁻¹
B22	86.5 nM	0.00058 s⁻¹	6710 M⁻¹ s⁻¹
B23	227 nM	0.0017 s⁻¹	7500 M⁻¹ s⁻¹
B24	99.4 nM	0.00091 s⁻¹	9160 M⁻¹ s⁻¹

What follows are binders tested against T2, AAV5 (adeno-associated virus 5) (assay: SPR, AAV amine-coupled to CM5 chip;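 further: nanobodies flowed as analyte at seven concentrations spanning 1–100 nM over immobilized AAV (500–800 RU), kinetic constants derived by fitting the binding curves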).
T2 construct: also called adeno-associated virus serotype 5
Protocol: as §1

Binder	Kd	koff	kon
B1	748 nM	0.00507 s⁻¹	6780 M⁻¹ s⁻¹
B2	23.1 nM	0.00107 s⁻¹	46400 M⁻¹ s⁻¹
B3	45.3 nM	0.00608 s⁻¹	134000 M⁻¹ s⁻¹
B4	0.364 nM	6e-05 s⁻¹	165000 M⁻¹ s⁻¹
B5	1.69 nM	0.0003 s⁻¹	177000 M⁻¹ s⁻¹
B6	9.46 nM	0.00171 s⁻¹	181000 M⁻¹ s⁻¹
B7	578 nM	0.00544 s⁻¹	9410 M⁻¹ s⁻¹
B8	622 nM	0.00648 s⁻¹	10400 M⁻¹ s⁻¹
B9	192 nM	0.00191 s⁻¹	9940 M⁻¹ s⁻¹
B10	92.9 nM	0.0005 s⁻¹	5380 M⁻¹ s⁻¹
B11	6.75 nM	0.00124 s⁻¹	184000 M⁻¹ s⁻¹
B12	20.4 nM	0.00194 s⁻¹	95200 M⁻¹ s⁻¹
B13	213 nM	0.00163 s⁻¹	7660 M⁻¹ s⁻¹
B14	14.5 nM	0.00133 s⁻¹	91800 M⁻¹ s⁻¹
B15	211 nM	0.00083 s⁻¹	3930 M⁻¹ s⁻¹
B16	12.5 nM	0.00146 s⁻¹	117000 M⁻¹ s⁻¹
B17	28.9 nM	0.00086 s⁻¹	29800 M⁻¹ s⁻¹
B18	52.7 nM	0.00932 s⁻¹	177000 M⁻¹ s⁻¹
B19	48.9 nM	0.00123 s⁻¹	25100 M⁻¹ s⁻¹
B20	7.14 nM	2e-05 s⁻¹	2800 M⁻¹ s⁻¹
B21	130 nM	0.00117 s⁻¹	9030 M⁻¹ s⁻¹
B22	171 nM	0.00166 s⁻¹	9680 M⁻¹ s⁻¹
B23	81.8 nM	0.00046 s⁻¹	5620 M⁻¹ s⁻¹
B24	4.49 nM	3e-05 s⁻¹	6690 M⁻¹ s⁻¹

What follows are binders tested against T3, AAV9 (adeno-associated virus 9) (assay: SPR, AAV amine-coupled to CM5 chip;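 further: nanobodies flowed as analyte at seven concentrations spanning 1–100 nM over immobilized AAV (500–800 RU), kinetic constants derived by fitting the binding curves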).
T3 construct: also called adeno-associated virus serotype 9
Protocol: as §1

Binder	Kd	koff	kon
B1	712 nM	0.00477 s⁻¹	6700 M⁻¹ s⁻¹
B2	1.45 nM	0.00026 s⁻¹	179000 M⁻¹ s⁻¹
B3	31.9 nM	0.00349 s⁻¹	109000 M⁻¹ s⁻¹
B4	2.28 nM	0.0003 s⁻¹	132000 M⁻¹ s⁻¹
B5	4.13 nM	0.00023 s⁻¹	55700 M⁻¹ s⁻¹
B6	30.9 nM	0.00176 s⁻¹	57000 M⁻¹ s⁻¹
B7	62.3 nM	0.00816 s⁻¹	131000 M⁻¹ s⁻¹
B8	96.9 nM	0.00887 s⁻¹	91500 M⁻¹ s⁻¹
B9	223 nM	0.0005 s⁻¹	2240 M⁻¹ s⁻¹
B10	122 nM	0.0004 s⁻¹	3290 M⁻¹ s⁻¹
B11	7.64 nM	0.00126 s⁻¹	165000 M⁻¹ s⁻¹
B12	5.08 nM	0.00074 s⁻¹	146000 M⁻¹ s⁻¹
B13	28.9 nM	0.00025 s⁻¹	8660 M⁻¹ s⁻¹
B14	6.34 nM	0.00114 s⁻¹	180000 M⁻¹ s⁻¹
B15	382 nM	0.00051 s⁻¹	1340 M⁻¹ s⁻¹
B16	13.7 nM	0.00131 s⁻¹	95900 M⁻¹ s⁻¹
B17	9.74 nM	0.00099 s⁻¹	102000 M⁻¹ s⁻¹
B18	215 nM	0.00618 s⁻¹	28800 M⁻¹ s⁻¹
B19	5.14 nM	0.00064 s⁻¹	125000 M⁻¹ s⁻¹
B20	106 nM	0.00035 s⁻¹	3320 M⁻¹ s⁻¹
B21	82.2 nM	0.0006 s⁻¹	7300 M⁻¹ s⁻¹
B22	44.8 nM	0.00043 s⁻¹	9600 M⁻¹ s⁻¹
B23	420 nM	0.00128 s⁻¹	3050 M⁻¹ s⁻¹
B24	34.5 nM	0.0002 s⁻¹	5790 M⁻¹ s⁻¹

The binders below were run against T4, AAV2 (adeno-associated virus 2, UniProt P03135 1-735) (assay: SPR, AAV amine-coupled to CM5 chip;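 further: nanobodies flowed as analyte at seven concentrations spanning 1–100 nM over immobilized AAV (500–800 RU), kinetic constants derived by fitting the binding curves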).
T4 construct: also called adeno-associated virus serotype 2
Protocol: as §1

Binder	Kd	koff	kon
B1	907 nM	0.00325 s⁻¹	3580 M⁻¹ s⁻¹
B3	11.9 nM	0.00167 s⁻¹	141000 M⁻¹ s⁻¹
B6	93 nM	0.002 s⁻¹	21500 M⁻¹ s⁻¹
B8	224 nM	0.00485 s⁻¹	21600 M⁻¹ s⁻¹
B13	1060 nM	0.00114 s⁻¹	
B20	16 nM	3e-05 s⁻¹	1870 M⁻¹ s⁻¹
B23	75.7 nM	0.0005 s⁻¹	6600 M⁻¹ s⁻¹
